From IntAct's records for PubMed 25680527

B1: Pirin (Homo sapiens), O00625 (parent)
chain: MGSSKKVTLSVLSREQSEGVGARVRRSIGRPELKNLDPFLLFDEFKGGRPGGFPDHPHRGFETVSYLLEGGSMAHEDFCGHTGKMNPGDLQWMTAGRGILHAEMPCSEEPAHGLQLWVNLRSSEKMVEPQYQELKSEEIPKPSKDGVTVAVISGEALGIKSKVYTRTPTLYLDFKLDPGAKHSQPIPKGWTSFIYTISGDVYIGPDDAQQKIEPHHTAVLGEGDSVQVENKDPKRSHFVLIAGEPLREPVIQHGPFVMNTNEEISQAILDFRNAKNGFERAKTWKSKIGN
partner: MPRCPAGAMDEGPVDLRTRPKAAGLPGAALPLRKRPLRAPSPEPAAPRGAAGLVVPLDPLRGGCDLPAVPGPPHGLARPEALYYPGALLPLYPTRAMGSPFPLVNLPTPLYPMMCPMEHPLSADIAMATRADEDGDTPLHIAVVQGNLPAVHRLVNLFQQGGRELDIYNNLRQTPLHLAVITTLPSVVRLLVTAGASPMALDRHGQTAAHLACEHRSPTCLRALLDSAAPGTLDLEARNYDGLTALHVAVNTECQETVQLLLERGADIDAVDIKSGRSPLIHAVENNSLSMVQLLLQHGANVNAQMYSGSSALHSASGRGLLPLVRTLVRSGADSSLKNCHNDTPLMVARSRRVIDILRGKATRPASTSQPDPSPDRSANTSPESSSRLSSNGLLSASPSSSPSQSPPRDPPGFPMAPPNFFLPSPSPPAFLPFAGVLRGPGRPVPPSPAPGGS

Variants of: B1
Conditions: with bcl3_human BCL3, P20749
In the case of MGSSKKVTLSVLSREQSEGVGARVRRSIGRPELKNLDPFLLFDEFKGGRPGGFPDHPHRGFETVSYLLEGGSMAHEDFCGHTGKMNPGDLQWMTAGRGILHAAMPCSEEPAHGLQLWVNLRSSEKMVEPQYQELKSEEIPKPSKDGVTVAVISGEALGIKSKVYTRTPTLYLDFKLDPGAKHSQPIPKGWTSFIYTISGDVYIGPDDAQQKIEPHHTAVLGEGDSVQVENKDPKRSHFVLIAGEPLREPVIQHGPFVMNTNEEISQAILDFRNAKNGFERAKTWKSKIGN [E103A], the “effect of a mutation on the interaction” value is reported as “disrupting interaction”.
